Experimental data: patent US20100129288A1

Biological target: neurofascin on purified rat DRG neurons (rat) (UniProt P97685)
Assay: cell-based or functional assay

Sequence of UniProt P97685 (P97685 25-1240, form in doubt): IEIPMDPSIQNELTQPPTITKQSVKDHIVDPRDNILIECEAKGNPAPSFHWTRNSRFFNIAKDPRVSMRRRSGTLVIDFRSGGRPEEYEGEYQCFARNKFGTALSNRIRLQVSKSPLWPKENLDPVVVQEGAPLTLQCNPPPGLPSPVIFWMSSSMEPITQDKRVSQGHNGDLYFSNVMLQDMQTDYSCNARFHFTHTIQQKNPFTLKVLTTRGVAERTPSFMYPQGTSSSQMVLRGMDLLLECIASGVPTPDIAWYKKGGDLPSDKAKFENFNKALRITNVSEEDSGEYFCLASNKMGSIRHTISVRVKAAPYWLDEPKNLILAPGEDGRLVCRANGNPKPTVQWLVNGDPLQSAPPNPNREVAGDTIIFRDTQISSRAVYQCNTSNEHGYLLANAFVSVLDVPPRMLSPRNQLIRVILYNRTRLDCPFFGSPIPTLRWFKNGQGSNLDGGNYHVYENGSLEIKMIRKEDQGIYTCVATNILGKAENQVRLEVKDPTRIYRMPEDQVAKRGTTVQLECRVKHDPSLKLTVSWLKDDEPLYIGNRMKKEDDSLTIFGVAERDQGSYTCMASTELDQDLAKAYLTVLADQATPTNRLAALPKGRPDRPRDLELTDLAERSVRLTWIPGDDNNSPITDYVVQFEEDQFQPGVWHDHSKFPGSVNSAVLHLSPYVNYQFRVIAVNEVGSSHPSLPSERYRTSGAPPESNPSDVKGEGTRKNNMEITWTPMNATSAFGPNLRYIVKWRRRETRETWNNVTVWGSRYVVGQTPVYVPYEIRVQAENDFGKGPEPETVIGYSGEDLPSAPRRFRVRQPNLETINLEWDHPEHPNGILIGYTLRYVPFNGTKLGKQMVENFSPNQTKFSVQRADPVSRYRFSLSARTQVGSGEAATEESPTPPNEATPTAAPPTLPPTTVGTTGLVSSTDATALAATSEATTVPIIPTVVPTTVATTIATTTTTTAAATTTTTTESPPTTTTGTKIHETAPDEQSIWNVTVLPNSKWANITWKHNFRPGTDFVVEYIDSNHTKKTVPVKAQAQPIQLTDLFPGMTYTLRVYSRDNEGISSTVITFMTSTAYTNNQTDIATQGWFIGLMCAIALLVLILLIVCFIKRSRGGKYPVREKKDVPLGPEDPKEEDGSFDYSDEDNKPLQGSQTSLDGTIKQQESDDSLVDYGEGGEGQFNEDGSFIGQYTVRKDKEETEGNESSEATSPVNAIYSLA

OLF-Fc clusters co-localized with neurofascin clusters: 96%
B1: OLF-Fc (Fc-fusion protein containing the olfactomedin domain of gliomedin) (Fc fusion, part only; not given: human Fc, part only)
chain, part: NDDTLVGRADEKVNERHSPQTEPMITSIGNPAQVLKVKETFGTWLRESANRSDDRIWVTEHFSGIMVKEFEDLPALLNSSFTLLHLPHYFHGCGHAVYNNSLYYHKGGSNTIVRFEFGKETPQTLKLEDALYFDRKYLFANSKTYFNIAVDEKGLWIIYASSVDGSSILVAQLDERTFSVLRHINTTYPKSKAGNAFIAQGILYVTDTKDTRVTFAFDLLRGKQINANFGLRMSQSVLAMLSYNMRDQHLYSWEDGHLMLYPVHFSSTAPS
